Data: article PMC3884668

Target: T1, DIS3L2 (rDIS3L2, wild type) (Homo sapiens, UniProt Q8IYB7 1-885)
T1 sequence: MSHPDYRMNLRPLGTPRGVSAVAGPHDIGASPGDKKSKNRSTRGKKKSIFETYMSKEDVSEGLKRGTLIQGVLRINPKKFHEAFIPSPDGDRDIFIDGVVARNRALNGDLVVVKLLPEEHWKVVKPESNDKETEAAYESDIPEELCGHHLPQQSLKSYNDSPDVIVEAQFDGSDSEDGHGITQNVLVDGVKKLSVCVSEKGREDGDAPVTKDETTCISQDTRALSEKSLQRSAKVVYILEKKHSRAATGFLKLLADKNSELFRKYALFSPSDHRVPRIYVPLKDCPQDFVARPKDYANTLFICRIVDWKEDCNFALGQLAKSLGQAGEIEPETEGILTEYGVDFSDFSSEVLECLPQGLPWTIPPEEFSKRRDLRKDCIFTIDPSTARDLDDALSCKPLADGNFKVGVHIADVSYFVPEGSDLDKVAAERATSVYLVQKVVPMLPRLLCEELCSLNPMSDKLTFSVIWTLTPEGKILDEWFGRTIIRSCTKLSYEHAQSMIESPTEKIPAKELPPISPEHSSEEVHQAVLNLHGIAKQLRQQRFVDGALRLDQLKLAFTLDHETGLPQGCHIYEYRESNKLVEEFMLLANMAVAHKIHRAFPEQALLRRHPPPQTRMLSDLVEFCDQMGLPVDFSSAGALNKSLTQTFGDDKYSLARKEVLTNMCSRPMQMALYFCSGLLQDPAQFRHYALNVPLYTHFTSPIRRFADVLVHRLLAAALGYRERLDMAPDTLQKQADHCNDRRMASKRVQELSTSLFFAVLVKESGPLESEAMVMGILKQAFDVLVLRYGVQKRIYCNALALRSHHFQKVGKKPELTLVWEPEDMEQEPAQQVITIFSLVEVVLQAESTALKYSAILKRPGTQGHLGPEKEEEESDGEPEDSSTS
Assay: EMSA

## UUUUUUUUUUUUUUUUUUUUUUUUUUUUUU (ssRNA) [U30 RNA]
  binding result: binds
